Values joined by “and” are separate entries in the source; they are usually repeats but may differ in a detail not shown here. Equal values may be shown once.
Experiments:
[1] = molecular target: T1, recombinant cyno ENTPD2 extracellular domain (residues 29-462) with C-terminal Avi-His6 tag (cynomolgus macaque, UniProt Q9Y5L3 29-462 (human entry)); test: SPR Biacore, mAb captured, ECD analyte, 25C
T1 construct: also called cynomologus (cyno) ENTPD2 ECD
T1 chain (part 1 of 2): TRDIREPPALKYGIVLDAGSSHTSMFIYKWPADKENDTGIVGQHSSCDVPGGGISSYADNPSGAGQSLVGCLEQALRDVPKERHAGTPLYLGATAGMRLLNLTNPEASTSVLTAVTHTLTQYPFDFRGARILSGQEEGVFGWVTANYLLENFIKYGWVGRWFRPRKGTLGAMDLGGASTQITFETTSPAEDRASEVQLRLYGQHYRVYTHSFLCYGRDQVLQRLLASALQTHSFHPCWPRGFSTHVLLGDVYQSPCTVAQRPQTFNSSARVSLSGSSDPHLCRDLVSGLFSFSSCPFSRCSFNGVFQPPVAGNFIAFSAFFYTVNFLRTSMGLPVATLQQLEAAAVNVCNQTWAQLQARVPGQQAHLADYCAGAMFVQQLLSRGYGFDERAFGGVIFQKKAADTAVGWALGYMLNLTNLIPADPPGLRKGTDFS
T1 chain (part 2 of 2): HHHHHH
Protocol: (§1) Biacore Screening: Affinity was measured by determining the kinetic rate constants using surface plasmon resonance (SPR) on a Biacore T200 or T100 with the T200 sensitivity upgrade instrument (Biacore, GE Healthcare). Antibodies were captured on CM5 sensor chips (Biacore, GE Healthcare) prepared with a mouse anti-human IgG Fc antibody (ThermoFisher catalogue #05-4200) amine coupled to the surface. […] ENTPD2 analytes were allowed to associate for 180 s and dissociate for up to 1800 s depending on the off-rate of the antibody at a flow rate of 30 μL/min. The running buffer was PBS pH 7.2 (prepared from a Corning 10X stock, cat#46-013-CM)+0.05% Tween 20. […] The raw data were analyzed using Biacore T200 Evaluation Software version 1.0 and fit to a 1:1 binding model, with all parameters set to fit globally except for RI, which was set to fit locally.

[2] = molecular target: T2, recombinant human ENTPD2 extracellular domain (residues 29-462) with C-terminal Avi-His6 tag (human, UniProt Q9Y5L3 29-462, biotinylated on the AviTag in the epitope binning assay); test: SPR Biacore, mAb captured, ECD analyte, 25C
T2 construct: also called human ENTPD2 ECD; Human ENTPD2-Avi-His6 protein
Protocol: as §1

[3] = molecular target: T3, human ENTPD2 expressed on cells (human, UniProt Q9Y5L3 1-495); test: flow cytometry, NIH3T3 human ENTPD2 cells
T3 construct: full-length human ENTPD2 on engineered cells; also called NIH3T3 humanENTPD2; NIH/3T3-hENTPD2
T3 sequence: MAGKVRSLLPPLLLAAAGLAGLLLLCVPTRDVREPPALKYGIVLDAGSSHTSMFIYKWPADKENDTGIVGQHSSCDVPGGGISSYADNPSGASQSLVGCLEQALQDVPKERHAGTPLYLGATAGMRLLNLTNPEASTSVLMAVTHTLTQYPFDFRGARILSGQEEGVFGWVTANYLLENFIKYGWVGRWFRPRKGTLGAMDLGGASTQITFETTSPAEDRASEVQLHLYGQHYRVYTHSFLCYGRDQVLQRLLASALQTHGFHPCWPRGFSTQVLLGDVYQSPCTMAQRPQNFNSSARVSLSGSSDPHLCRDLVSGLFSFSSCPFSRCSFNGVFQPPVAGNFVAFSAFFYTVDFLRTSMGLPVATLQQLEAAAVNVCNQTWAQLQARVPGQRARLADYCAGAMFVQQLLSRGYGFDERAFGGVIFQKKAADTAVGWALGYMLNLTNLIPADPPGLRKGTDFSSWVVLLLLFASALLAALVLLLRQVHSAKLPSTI

[4] = molecular target: human FcγRIIIa, V158 (high affinity variant) on engineered Jurkat cells (human, UniProt P08637 17-254); test: cell-based or functional assay
[5] = molecular target: T4, cyno ENTPD2 expressed on NIH/3T3 cells (cynomolgus macaque, UniProt Q9Y5L3 1-495 (human entry)); test: cell-based or functional assay
T4 chain: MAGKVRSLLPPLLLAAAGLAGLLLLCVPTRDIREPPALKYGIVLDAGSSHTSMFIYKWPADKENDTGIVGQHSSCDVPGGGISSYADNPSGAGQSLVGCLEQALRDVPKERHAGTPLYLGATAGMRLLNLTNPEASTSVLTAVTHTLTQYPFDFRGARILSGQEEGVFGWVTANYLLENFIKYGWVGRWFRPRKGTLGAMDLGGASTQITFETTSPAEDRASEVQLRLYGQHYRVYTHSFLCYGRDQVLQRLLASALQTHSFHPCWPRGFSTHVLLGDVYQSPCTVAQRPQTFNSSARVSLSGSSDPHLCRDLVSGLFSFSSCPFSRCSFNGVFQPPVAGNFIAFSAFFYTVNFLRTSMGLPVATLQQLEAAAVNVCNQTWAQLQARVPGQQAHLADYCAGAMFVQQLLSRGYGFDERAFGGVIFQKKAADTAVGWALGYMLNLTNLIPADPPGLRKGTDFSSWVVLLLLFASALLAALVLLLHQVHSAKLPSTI

[6] = molecular target: T3, human ENTPD2 expressed on cells; test: cell-based or functional assay
[7] = molecular target: T5, recombinant monomeric mouse ENTPD2 extracellular domain (residues 29-462) with His6 tag (mouse, UniProt O55026 29-462); test: SPR Biacore
T5 sequence: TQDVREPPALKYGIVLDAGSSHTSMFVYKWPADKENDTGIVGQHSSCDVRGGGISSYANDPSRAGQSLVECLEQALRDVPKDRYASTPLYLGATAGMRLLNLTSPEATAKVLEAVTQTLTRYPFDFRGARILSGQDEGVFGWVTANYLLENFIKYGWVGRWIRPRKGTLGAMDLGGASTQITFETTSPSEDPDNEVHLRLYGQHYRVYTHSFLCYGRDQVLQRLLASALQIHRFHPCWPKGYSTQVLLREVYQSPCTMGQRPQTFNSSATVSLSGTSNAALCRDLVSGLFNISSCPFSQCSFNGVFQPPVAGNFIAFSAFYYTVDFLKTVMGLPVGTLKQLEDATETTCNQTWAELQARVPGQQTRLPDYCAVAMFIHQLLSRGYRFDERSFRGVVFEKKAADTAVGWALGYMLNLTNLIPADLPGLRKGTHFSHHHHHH

Chain of human FcγRIIIa, V158 (high affinity variant) on engineered Jurkat cells (P08637 other isoform, or with tags, fused parts or gaps mutant limits assumed): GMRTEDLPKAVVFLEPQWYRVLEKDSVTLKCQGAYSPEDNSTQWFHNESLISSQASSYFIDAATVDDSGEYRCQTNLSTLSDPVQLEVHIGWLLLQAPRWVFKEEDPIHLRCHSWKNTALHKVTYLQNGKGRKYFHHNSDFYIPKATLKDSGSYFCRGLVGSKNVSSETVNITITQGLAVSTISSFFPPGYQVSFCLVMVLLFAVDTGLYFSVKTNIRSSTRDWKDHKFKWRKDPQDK

B1: ANTI-HUMAN ENTPD2 MAB1 (antibody, human IgG1, kappa)
heavy: not shown
light: DIQLTQSPSSLSASVGDRVTITCSASSSVSYIHWFQQKPGKAPKLLIYSTSNLASGVPSRFSGSGSGTFFTLTISSLQPEDFATYFCHQWSSYPWTFGQGTKVEIKRTVAAPSVFIFPPSDEQLKSGTASVVCLLNNFYPREAKVQWKVDNALQSGNSQESVTEQDSKDSTYSLSSTLTLSKADYEKHKVYACEVTHQGLSSPVTKSFNRGEC
notes: humanized from mAb17; human IgG1, kappa; also called anti-ENTPD2 mAb1
B1 showed a Kd [1] of 3.4 nM, a koff [1] of 0.0012 s⁻¹ and a kon [1] of 360000 M⁻¹ s⁻¹. It also gave a Kd [2] of 1.7 nM, a koff [2] of 0.00019 s⁻¹ and a kon [2] of 110000 M⁻¹ s⁻¹. For the same binder, the EC50 [3] was 1.5 nM, the “EC50, Jurkat FcγRIIIa V158 NFAT-luciferase reporter with RKO cells” value [4] was 17.3 nM and 2.55 µg/mL and the “% inhibition, Cyno ENTPD2 NIH/3T3 Assay” value [5] was 91%. For the same binder, the “IC50, Cyno ENTPD2 NIH/3T3 Assay” value [5] was 4.1 nM, the “% inhibition, Human ENTPD2 NIH/3T3 Assay” value [6] was 92% and the “% inhibition, RKO Assay” value [6] was 97%. For the same binder, the “IC50, Human ENTPD2 NIH/3T3 Assay” value [6] was 1.1 nM, the “IC50, RKO Assay” value [6] was 0.8 nM and the binding result [7] was “no binding”.

B2: ANTI-HUMAN ENTPD2 MAB8 (antibody, human IgG1, lambda, V domains shown)
VH: QVQLQQSGPGLVKPSQTLSLTCAISGDSVSSSSAAWNWIRQSPSRGLEWLGRIYYRSKWYNDYAVSVKSRITINPDTSKNQFSLQLNSVTPEDTAVYYCARGSYVTSSYEGFDYWGQGTLVTVSS
VL: SYELTQPLSVSVALGQTARITCSGDNLPEKYAYWYQQKPGQAPVLVIYDDNKRPSGIPERFSGSNSGNTATLTISRAQAGDEADYYCQSYGKWGWTWVFGGGTKLTVLG
notes: also called Anti-ENTPD2 mAb8
B2 was tested, and the Kd [1] was 81.1 nM, the koff [1] was 0.024 s⁻¹ and the kon [1] was 300000 M⁻¹ s⁻¹. It also gave a Kd [2] of 3.3 nM, a koff [2] of 0.00094 s⁻¹ and a kon [2] of 290000 M⁻¹ s⁻¹. The EC50 [3] was 0.6 nM, the “% inhibition, Cyno ENTPD2 NIH/3T3 Assay” value [5] was 96% and the “IC50, Cyno ENTPD2 NIH/3T3 Assay” value [5] was 0.9 nM. For the same binder, the “% inhibition, Human ENTPD2 NIH/3T3 Assay” value [6] was 97%, the “% inhibition, RKO Assay” value [6] was 95% and the “IC50, Human ENTPD2 NIH/3T3 Assay” value [6] was 0.1 nM. The “IC50, RKO Assay” value [6] was 0.2 nM and the binding result [7] was “binds”.

B3: ANTI-HUMAN ENTPD2 MAB9 (antibody, human IgG1, lambda, V domains shown)
VH: QVQLVQSGAEVKKPGSSVKVSCKASGGTFDSYAVSWVRQAPGQGLEWMGRIVPWLGHTQYAQKFQGRVTITADESTSTAYMELSSLRSEDTAVYYCARESPGYRYSFDVWDQGTLVTVSS
VL: SYELTQPLSVSVALGQTARITCSGDAIGEKYVYWYQQKPGQAPVLVIYDDNNRPSGIPERFSGSNSGNTATLTISRAQAGDEADYYCASYDLQQARWVFGGGTKLTVLG
notes: also called Anti-ENTPD2 mAb9
In the case of B3, the Kd [1] is reported as 20.9 nM, the koff [1] is reported as 0.021 s⁻¹ and the kon [1] is reported as 990000 M⁻¹ s⁻¹. The Kd [2] was 0.9 nM, the koff [2] was 0.0003 s⁻¹ and the kon [2] was 380000 M⁻¹ s⁻¹. The EC50 [3] was 0.6 nM, the “% inhibition, Cyno ENTPD2 NIH/3T3 Assay” value [5] was 71% and the “IC50, Cyno ENTPD2 NIH/3T3 Assay” value [5] was 0.3 nM. The “% inhibition, Human ENTPD2 NIH/3T3 Assay” value [6] was 92%, the “% inhibition, RKO Assay” value [6] was 70% and the “IC50, Human ENTPD2 NIH/3T3 Assay” value [6] was 0.3 nM. For the same binder, the “IC50, RKO Assay” value [6] was 0.1 nM and the Kd [7] was 750 nM.

B4: ANTI-HUMAN ENTPD2 MAB10 (antibody, human IgG1, lambda, V domains shown)
VH: QVQLVQSGAEVKKPGSSVKVSCKASGGTFDSYAVSWVRQAPGQGLEWMGRIVPWLGFTRYAQKFQGRVTITADESTSTAYMELSSLRSEDTAVYYCARESPGYRYSFDVWDQGTLVTVSS
VL: SYELTQPLSVSVALGQTARITCSGDAIGEKYVYWYQQKPGQAPVLVIYDDNNRPSGIPERFSGSNSGNTATLTISRAQAGDEADYYCASYDLQQARWVFGGGTKLTVLG
notes: also called Anti-ENTPD2 mAb10
B4 was tested, and the Kd [1] was 15.2 nM, the koff [1] was 0.018 s⁻¹ and the kon [1] was 1.2e+06 M⁻¹ s⁻¹. It also gave a Kd [2] of 0.8 nM, a koff [2] of 0.00024 s⁻¹ and a kon [2] of 340000 M⁻¹ s⁻¹. For the same binder, the EC50 [3] was 0.8 nM, the “% inhibition, Cyno ENTPD2 NIH/3T3 Assay” value [5] was 86% and the “IC50, Cyno ENTPD2 NIH/3T3 Assay” value [5] was 0.5 nM. For the same binder, the “% inhibition, Human ENTPD2 NIH/3T3 Assay” value [6] was 88%, the “% inhibition, RKO Assay” value [6] was 77% and the “IC50, Human ENTPD2 NIH/3T3 Assay” value [6] was 0.4 nM. For the same binder, the “IC50, RKO Assay” value [6] was 0.2 nM and the binding result [7] was “binds”.
